Assay results: patent US20250339382A1, “CORRALLING AMPHIPATHIC PEPTIDE COLLOIDS” (KANSAS STATE UNIVERSITY RESEARCH FOUNDATION, priority 2022, published 2025)
No end group written: not given here. *: point of attachment. methylmercury = [CH3][Hg]*

Tests used:
[1] = Particle size and polydispersity by dynamic light scattering (Litesizer 500); assay type: physicochemical; conditions: for Hydrodynamic Diameter / Polydispersity: colloids produced by the amphipathic sequence in soy oil
Procedure: (§1) Encapsulation studies-Winterized Soybean oil (Archer Daniel Midlands, Chicago, IL) 50 μL was added to 2 mg of dry peptide and vortexed for 2 min. Deionized distilled-reverse osmosis (DDI-RO) water was added to a final volume of 1 mL. This mixture was sonicated (bath sonicator) for 15 min at 37° C. The generated CAPC are maintained at RT for at least 1 h prior to confocal microscopy. For the solvent/oil encapsulation study reagent grade-Benzene (Sigma-Aldrich, St. Louis, MO), Cyclohexane (Acros Organics, Geel, Belgium), n-Decane (grade 99+%, Sigma-Aldrich, St. Louis), Migloyl® 812N; capric triglyceride (Pharma Grade, IOI Oleo GmbH, Witten, Germany), and Mineral oil paraffin (USP, Thermo-Fisher Scientific, Waltham, MA) and Winterized Soy oil (Archer Daniel Midlands, Chicago, IL) were used. […] prepared using 50 μL of the solvent/oil along with 480 μL of DDI-RO water were sonicated for 15 min. CAPC, 2 mg, was subsequently added and sonicated for 10 min. These samples were measured 24 h thereafter for their size, Zeta potential and their circular dichroism (CD) spectra recorded. Particle size/Zeta potential-The samples were analyzed using a LitesizerTM 500 Particle Size Analyzer (Anton Paar GmbH, Graz, Austria) using an Omega Cuvette at 25° C. The size distribution of the particles was analyzed with the proprietary KalliopeTM v.2.16 software (Anton Paar GmbH, Graz, Austria) using the intensity-weighing model. For the Zeta potential analysis, the suspension used above was diluted to 5-fold in DDI-RO prior to analysis.

[2] = Zeta potential analysis (Litesizer 500); assay type: physicochemical
Procedure: as §1

[3] = colloids produced by the amphipathic sequence in soy oil

| Substance | Hydrodynamic Diameter [1] [nm] | Polydispersity [1] [%] | Zeta Potential [2, 3] [mV] | average (mean) diameter ([1]; peptide complexed with soy oil droplets, DLS intensity peak) [nm] | Zeta Potential ([2]; peptide complexed with soy oil droplets) [mV] |
| --- | --- | --- | --- | --- | --- |
| 5(6)-Ac-FLIVI-KKKKK- C-CF (Ac-FLIVIKKKKKC; also: 5(6)-carboxyfluorescein label (C-CF), attachment not given here) | 766 ± 225.0 | 21 ± 4.8 | 25 ± 2.7 |  |  |
| Ac-FAAAA-KKKKK-CONH2 (Ac-FAAAAKKKKK-NH2) [oligo-alanine peptide] | 681 | 500 | 10.2 |  |  |
| Ac-FLIVI-KKKKK-C-Me-Hg (Ac-FLIVIKKKKKC(methylmercury)) | 578 ± 96.0 | 25 ± 5.8 | 33 ± 4.0 |  |  |
| Ac-FLIVI-KKKKK-CO-NH2 (Ac-FLIVIKKKKK-NH2) [Ac-FLIVI-KKKKK-CONH2] | 560 | 20 | 38 | 465 | 44.8 |
| Ac-FLIVIGSII-KKKKK-CONH2 (Ac-FLIVIGSIIKKKKK-NH2) [Ac-FLIVIGSII-KKKKKCONH2] | 300 | 23 | 21 |  |  |
| Ac-FLLLL-KKKKK-CONH2 (Ac-FLLLLKKKKK-NH2) | 666 | 200 | −0.6 |  |  |
| Ac-IVFLI-KKKKK-CONH2 (Ac-IVFLIKKKKK-NH2) | 594 | 25 | 25 |  |  |
